Reference: IntAct's records for PubMed 21134644

How the values were obtained:
[1] = target: ITGB1, P05556-5
[2] = target: itb1_human ITGB1 (UniProt P05556)
Chain of itb1_human ITGB1 (P05556 whole entry): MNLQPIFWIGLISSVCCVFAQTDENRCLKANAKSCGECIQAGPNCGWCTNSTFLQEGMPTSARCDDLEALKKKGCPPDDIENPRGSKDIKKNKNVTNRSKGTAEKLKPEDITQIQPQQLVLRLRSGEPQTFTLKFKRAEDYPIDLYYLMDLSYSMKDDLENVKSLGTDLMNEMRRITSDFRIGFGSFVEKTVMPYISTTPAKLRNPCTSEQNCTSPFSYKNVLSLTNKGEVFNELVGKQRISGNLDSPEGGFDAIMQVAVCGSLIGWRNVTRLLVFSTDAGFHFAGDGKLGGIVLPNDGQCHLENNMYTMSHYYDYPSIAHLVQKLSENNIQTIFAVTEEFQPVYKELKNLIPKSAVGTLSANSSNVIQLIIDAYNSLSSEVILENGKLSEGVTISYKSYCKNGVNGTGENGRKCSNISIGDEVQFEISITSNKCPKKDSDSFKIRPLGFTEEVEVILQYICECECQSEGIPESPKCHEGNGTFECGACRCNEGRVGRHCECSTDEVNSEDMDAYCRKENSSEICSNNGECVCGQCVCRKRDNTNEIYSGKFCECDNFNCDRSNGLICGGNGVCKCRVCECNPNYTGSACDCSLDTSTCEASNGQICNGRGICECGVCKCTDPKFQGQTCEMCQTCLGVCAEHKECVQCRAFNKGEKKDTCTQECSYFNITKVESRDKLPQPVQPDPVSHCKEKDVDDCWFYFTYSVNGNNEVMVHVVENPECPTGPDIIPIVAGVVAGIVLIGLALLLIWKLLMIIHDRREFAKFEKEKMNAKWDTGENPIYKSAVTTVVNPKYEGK

Chain of ITGB1, P05556-5 (P05556 other isoform, or with tags, fused parts or gaps): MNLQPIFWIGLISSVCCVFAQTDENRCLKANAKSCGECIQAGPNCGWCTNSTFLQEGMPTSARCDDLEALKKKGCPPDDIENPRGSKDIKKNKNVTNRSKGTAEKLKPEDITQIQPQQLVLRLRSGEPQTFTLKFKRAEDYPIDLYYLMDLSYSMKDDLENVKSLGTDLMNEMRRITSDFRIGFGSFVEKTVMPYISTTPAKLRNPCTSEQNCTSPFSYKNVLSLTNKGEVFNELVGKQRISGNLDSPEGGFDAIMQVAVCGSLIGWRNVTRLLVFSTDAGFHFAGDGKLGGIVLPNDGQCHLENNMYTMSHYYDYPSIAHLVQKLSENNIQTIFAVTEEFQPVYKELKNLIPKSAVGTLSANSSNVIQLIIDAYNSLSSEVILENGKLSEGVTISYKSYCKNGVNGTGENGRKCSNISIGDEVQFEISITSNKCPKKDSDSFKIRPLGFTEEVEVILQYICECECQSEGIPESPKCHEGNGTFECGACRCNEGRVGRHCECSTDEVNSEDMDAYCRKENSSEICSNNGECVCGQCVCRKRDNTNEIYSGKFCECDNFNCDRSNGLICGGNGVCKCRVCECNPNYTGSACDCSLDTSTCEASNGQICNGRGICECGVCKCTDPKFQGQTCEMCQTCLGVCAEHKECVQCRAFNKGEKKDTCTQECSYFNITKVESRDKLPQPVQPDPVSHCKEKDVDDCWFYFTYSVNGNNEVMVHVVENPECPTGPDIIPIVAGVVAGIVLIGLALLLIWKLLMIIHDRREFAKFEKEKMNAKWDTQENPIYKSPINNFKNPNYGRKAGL

effect of a mutation on the interaction [1]: decreasing interaction
effect of a mutation on the interaction [2]: disrupting interaction
Substance: Talin-2 (Mus musculus), Q71LX4 Y376A
